Here are results for two variants from IntAct's records for PubMed 16709668.

First the molecules themselves.
B1: "Peptide-N(4)-(N-acetyl-beta-glucosaminyl)asparagine amidase" (Mus musculus), Q9JI78 (parent)
chain: MASATLGSSSSSASPAVAELCQNTPETFLEASKLLLTYADNILRNPSDEKYRSIRIGNTAFSTRLLPVRGAVECLFEMGFEEGETHLIFPKKASVEQLQKIRDLIAIERSSRLDGSSKKVQFSQHPAAAKLPLEQSEDPAGLIRHSGNQTGQLPSLPSAPMVVGDSTILKVLQSNIQHVQLYENPVLQEKALTCIPVSELKRKAQEKLFRARKLDKGTNVSDEDFLLLELLHWFKEEFFRWVNNIVCSKCGGETRSRDEALLPNDDELKWGAKNVENHYCDACQLSNRFPRYNNPEKLLETRCGRCGEWANCFTLCCRALGFEARYVWDYTDHVWTEVYSPSQQRWLHCDACEDVCDKPLLYEIGWGKKLSYIIAFSKDEVVDVTWRYSCKHDEVMSRRTKVKEELLRETINGLNKQRQLSLSESRRKELLQRIIVELVEFISPKTPRPGELGGRVSGSLAWRVARGETGLERKEILFIPSENEKISKQFHLRYDIVRDRYIRVSDNNINISGWENGVWKMESIFRKVEKDWNMVYLARKEGSSFAYISWKFECGSAGLKVDTVSIRTSSQSFESGSVRWKLRSETAQVNLLGDKNLRSYNDFSGATEVTLEAELSRGDGDVAWQHTQLFRQSLNDSGENGLEIIITFNDL

The variants in the experiment derive from B1. The note with it: with tera_mouse Vcp.
N41P: the “effect of a mutation on the interaction” value is “disrupting interaction”.

G79A;F80A: the “effect of a mutation on the interaction” value was “disrupting interaction”.
